Reference: paper PMC3478282, “Probing the Putative Active Site of YjdL: An Unusual Proton-Coupled Oligopeptide Transporter from E. coli” (PLoS ONE, 2012)

Assays:
YjdL Tyr113Phe (E. coli) = YjdL Tyr113Phe (E. coli) (UniProt P39276)
YjdL Tyr21Phe (E. coli) = YjdL Tyr21Phe (E. coli) (UniProt P39276)
YjdL Tyr25Phe (E. coli) = YjdL Tyr25Phe (E. coli) (UniProt P39276)
YjdL Tyr58Phe (E. coli) = YjdL Tyr58Phe (E. coli) (UniProt P39276)
[1] = biological target: YjdL from E. coli, wild type (E. coli) (UniProt P39276)
YjdL-Ala281Phe (E. coli) = YjdL-Ala281Phe (E. coli) (UniProt P39276)
YjdL-Trp278Phe (E. coli) = YjdL-Trp278Phe (E. coli) (UniProt P39276)
[2] = biological target: YjdL from E. coli, wild type (E. coli) (UniProt P39276); remark: listed apart in the source
YjdL-Asp392Ser (E. coli) = YjdL-Asp392Ser (E. coli) (UniProt P39276)

| IC50 of inhibition of β-Ala-Lys(AMCA) uptake into E. coli cells (0.2 mM substrate, 5 min, pH 6.5) (YjdL Tyr113Phe (E. coli)) [mM] | IC50 of inhibition of β-Ala-Lys(AMCA) uptake into E. coli cells (0.2 mM substrate, 5 min, pH 6.5) (YjdL Tyr21Phe (E. coli)) [mM] | IC50 of inhibition of β-Ala-Lys(AMCA) uptake into E. coli cells (0.2 mM substrate, 5 min, pH 6.5) (YjdL Tyr25Phe (E. coli)) [mM] | IC50 of inhibition of β-Ala-Lys(AMCA) uptake into E. coli cells (0.5 mM substrate, 15 min, pH 6.5) (YjdL Tyr58Phe (E. coli)) [mM] | IC50 of inhibition of β-Ala-Lys(AMCA) uptake into E. coli cells (0.2 mM substrate, 5 min, pH 6.5) [1] [mM] | IC50 of inhibition of β-Ala-Lys(AMCA) uptake into E. coli cells (0.5 mM substrate, 15 min, pH 6.5) [1] [mM] | IC50 of inhibition of β-Ala-Lys(AMCA) uptake into E. coli cells (0.2 mM substrate, 5 min, pH 6.5) (YjdL-Ala281Phe (E. coli)) [mM] | IC50 of inhibition of β-Ala-Lys(AMCA) uptake into E. coli cells (0.2 mM substrate, 5 min, pH 6.5) (YjdL-Trp278Phe (E. coli)) [mM] | β-Ala-Lys(AMCA) uptake (0.5 mM) left with 50 mM competitor, E. coli cells, pH 6.5 [2] [%] | β-Ala-Lys(AMCA) uptake (0.5 mM) left with 50 mM competitor, E. coli cells, pH 6.5 (YjdL-Asp392Ser (E. coli)) [%] | Substance |
| --- | --- | --- | --- | --- | --- | --- | --- | --- | --- | --- |
| 0.34 | 0.45 | 0.4 | > 50 | 0.28 | 0.89 | 0.26 | 0.38 | < 10 | – | Ala-Lys (peptide) |
| – | – | – | – | – | – | – | – | 55 | 34 | Ala-Ala-Ala (peptide) |
